In publication PMC4832331, “Structural insights into the Escherichia coli lysine decarboxylases and molecular determinants of interaction with the AAA+ ATPase RavA” (Scientific Reports, 2016):

B1: Escherichia coli biosynthetic lysine decarboxylase LdcC (enzyme, E. coli)
chain: MNIIAIMGPHGVFYKDEPIKELESALVAQGFQIIWPQNSVDLLKFIEHNPRICGVIFDWDEYSLDLCSDINQLNEYLPLYAFINTHSTMDVSVQDMRMALWFFEYALGQAEDIAIRMRQYTDEYLDNITPPFTKALFTYVKERKYTFCTPGHMGGTAYQKSPVGCLFYDFFGGNTLKADVSISVTELGSLLDHTGPHLEAEEYIARTFGAEQSYIVTNGTSTSNKIVGMYAAPSGSTLLIDRNCHKSLAHLLMMNDVVPVWLKPTRNALGILGGIPRREFTRDSIEEKVAATTQAQWPVHAVITNSTYDGLLYNTDWIKQTLDVPSIHFDSAWVPYTHFHPIYQGKSGMSGERVAGKVIFETQSTHKMLAALSQASLIHIKGEYDEEAFNEAFMMHTTTSPSYPIVASVETAAAMLRGNPGKRLINRSVERALHFRKEVQRLREESDGWFFDIWQPPQVDEAECWPVAPGEQWHGFNDADADHMFLDPVKVTILTPGMDEQGNMSEEGIPAALVAKFLDERGIVVEKTGPYNLLFLFSIGIDKTKAMGLLRGLTEFKRSYDLNLRIKNMLPDLYAEDPDFYRNMRIQDLAQGIHKLIRKHDLPGLMLRAFDTLPEMIMTPHQAWQRQIKGEVETIALEQLVGRVSANMILPYPPGVPLLMPGEMLTKESRTVLDFLLMLCSVGQHYPGFETDIHGAKQDEDGVYRVRVLK
notes: LdcC, biosynthetic lysine decarboxylase of E. coli; Decamer; PLP cofactor was in the buffers; also called constitutive lysine decarboxylase; copies: 10
B2: Escherichia coli inducible lysine decarboxylase LdcI (enzyme, E. coli)
chain: MNVIAILNHMGVYFKEEPIRELHRALERLNFQIVYPNDRDDLLKLIENNARLCGVIFDWDKYNLELCEEISKMNENLPLYAFANTYSTLDVSLNDLRLQISFFEYALGAAEDIANKIKQTTDEYINTILPPLTKALFKYVREGKYTFCTPGHMGGTAFQKSPVGSLFYDFFGPNTMKSDISISVSELGSLLDHSGPHKEAEQYIARVFNADRSYMVTNGTSTANKIVGMYSAPAGSTILIDRNCHKSLTHLMMMSDVTPIYFRPTRNAYGILGGIPQSEFQHATIAKRVKETPNATWPVHAVITNSTYDGLLYNTDFIKKTLDVKSIHFDSAWVPYTNFSPIYEGKCGMSGGRVEGKVIYETQSTHKLLAAFSQASMIHVKGDVNEETFNEAYMMHTTTSPHYGIVASTETAAAMMKGNAGKRLINGSIERAIKFRKEIKRLRTESDGWFFDVWQPDHIDTTECWPLRSDSTWHGFKNIDNEHMYLDPIKVTLLTPGMEKDGTMSDFGIPASIVAKYLDEHGIVVEKTGPYNLLFLFSIGIDKTKALSLLRALTDFKRAFDLNLRVKNMLPSLYREDPEFYENMRIQELAQNIHKLIVHHNLPDLMYRAFEVLPTMVMTPYAAFQKELHGMTEEVYLDEMVGRINANMILPYPPGVPLVMPGEMITEESRPVLEFLQMLCEIGAHYPGFETDIHGAYRQADGRYTVKVLKEESKK
notes: LdcI (CadA), inducible lysine decarboxylase of E. coli; wing domain 1-129, core domain 130-563, CTD 564-715; Decamer of two pentameric rings; The whole enzyme (715 residues) is likely; PLP cofactor was in the buffers; also called CadA; LdcIa (at pH 6.2); copies: 10
B3: LdcIC chimera (LdcI with the C-terminal β-sheet of LdcC) (enzyme, E. coli, UniProt P0A9H3 1-630, looked up)
chain: MNVIAILNHMGVYFKEEPIRELHRALERLNFQIVYPNDRDDLLKLIENNARLCGVIFDWDKYNLELCEEISKMNENLPLYAFANTYSTLDVSLNDLRLQISFFEYALGAAEDIANKIKQTTDEYINTILPPLTKALFKYVREGKYTFCTPGHMGGTAFQKSPVGSLFYDFFGPNTMKSDISISVSELGSLLDHSGPHKEAEQYIARVFNADRSYMVTNGTSTANKIVGMYSAPAGSTILIDRNCHKSLTHLMMMSDVTPIYFRPTRNAYGILGGIPQSEFQHATIAKRVKETPNATWPVHAVITNSTYDGLLYNTDFIKKTLDVKSIHFDSAWVPYTNFSPIYEGKCGMSGGRVEGKVIYETQSTHKLLAAFSQASMIHVKGDVNEETFNEAYMMHTTTSPHYGIVASTETAAAMMKGNAGKRLINGSIERAIKFRKEIKRLRTESDGWFFDVWQPDHIDTTECWPLRSDSTWHGFKNIDNEHMYLDPIKVTLLTPGMEKDGTMSDFGIPASIVAKYLDEHGIVVEKTGPYNLLFLFSIGIDKTKALSLLRALTDFKRAFDLNLRVKNMLPSLYREDPEFYENMRIQELAQNIHKLIVHHNLPDLMYRAFEVLPTMVMTPYAAFQKELHGEVETIALEQLVGRINANMILPYPPGVPLVMPGEMITEESRPVLEFLQMLCEIGAHYPGFETDIHGAKQDEDGVYRVRVLKMAG
notes: E. coli LdcI up to the first exchanged stretch; E. coli LdcC, first strand region of the C-terminal β-sheet; E. coli LdcI between the two exchanged stretches; E. coli LdcC from 697 to the C-terminus, second strand region of the C-terminal β-sheet; Synthetic ldcIC gene of 2148 bp (GenScript) in the pET-TEV vector; source: E. coli Rosetta 2 (DE3), purified (Ni-NTA, TEV cleavage, second Ni-NTA, …)
B4: Escherichia coli AAA+ ATPase RavA (enzyme)
chain: not shown
notes: RavA, AAA+ ATPase of E. coli; It was mixed in the presence of 2 mM ADP and 10 mM MgCl2
B5: LdcCI chimera (LdcC with the C-terminal β-sheet of LdcI) (enzyme, E. coli, UniProt P52095 1-630, looked up)
chain: MNIIAIMGPHGVFYKDEPIKELESALVAQGFQIIWPQNSVDLLKFIEHNPRICGVIFDWDEYSLDLCSDINQLNEYLPLYAFINTHSTMDVSVQDMRMALWFFEYALGQAEDIAIRMRQYTDEYLDNITPPFTKALFTYVKERKYTFCTPGHMGGTAYQKSPVGCLFYDFFGGNTLKADVSISVTELGSLLDHTGPHLEAEEYIARTFGAEQSYIVTNGTSTSNKIVGMYAAPSGSTLLIDRNCHKSLAHLLMMNDVVPVWLKPTRNALGILGGIPRREFTRDSIEEKVAATTQAQWPVHAVITNSTYDGLLYNTDWIKQTLDVPSIHFDSAWVPYTHFHPIYQGKSGMSGERVAGKVIFETQSTHKMLAALSQASLIHIKGEYDEEAFNEAFMMHTTTSPSYPIVASVETAAAMLRGNPGKRLINRSVERALHFRKEVQRLREESDGWFFDIWQPPQVDEAECWPVAPGEQWHGFNDADADHMFLDPVKVTILTPGMDEQGNMSEEGIPAALVAKFLDERGIVVEKTGPYNLLFLFSIGIDKTKAMGLLRGLTEFKRSYDLNLRIKNMLPDLYAEDPDFYRNMRIQDLAQGIHKLIRKHDLPGLMLRAFDTLPEMIMTPHQAWQRQIKGMTEEVYLDEMVGRVSANMILPYPPGVPLLMPGEMLTKESRTVLDFLLMLCSVGQHYPGFETDIHGAYRQADGRYTVKVLKEESKK
notes: E. coli LdcC up to the first exchanged stretch; E. coli LdcI, first strand region of the C-terminal β-sheet; E. coli LdcC between the two exchanged stretches; E. coli LdcI from 697 to the C-terminus, second strand region of the C-terminal β-sheet; Synthetic ldcCI gene of 2154 bp (GenScript) in the pET-TEV vector; source: E. coli Rosetta 2 (DE3), purified (Ni-NTA, TEV cleavage, second Ni-NTA, …)

Assays:
[1] = target: the molecule itself; assay: cryo-EM structure; LdcC alone, 2 mg/ml, 25 mM HEPES, 100 mM NaCl, 0.2 mM PLP, 1 mM DTT, pH 7.2 (results say pH 7.5); no ppGpp
[2] = target: the molecule itself; assay: cryo-EM structure; LdcI alone, 2 mg/ml, 25 mM MES, 100 mM NaCl, 0.2 mM PLP, 1 mM DTT, pH 6.2; no ppGpp
[3] = target: the molecule itself; assay: not stated; purified chimeras alone; decamers 'visually indistinguishable from the wild-type proteins'
[4] = target: B2; assay: negative stain EM; 0.4 mg/ml RavA mixed with 0.3 mg/ml LdcI, LdcC, LdcCI or LdcIC; 2 mM ADP, 10 mM MgCl2, 20 mM Hepes, 150 mM NaCl, pH 7.4; 10 min at room temperature; 2% uranyl acetate; details: both partners purified
[5] = target: B4; assay: as above; details: both partners purified

## B1
[1]
  stoichiometry N: 10

## B2
[2]
  stoichiometry N: 10

## B3
[3]
  stoichiometry N: 10

## B4
[4]
  binding result: binds

## B5
[3]
  stoichiometry N: 10
[5]
  binding result: binds
